Results reported in patent publication US20210095024A1 (Janssen / Centocor, published 2021).

Tests used:
[1] = target: T1, recombinant CEACAM5 (R&D Systems #4128-CM) (human, UniProt P06731 35-685); test: ELISA, plate-coated recombinant CEACAM5
T1 construct: Bought protein
T1 sequence: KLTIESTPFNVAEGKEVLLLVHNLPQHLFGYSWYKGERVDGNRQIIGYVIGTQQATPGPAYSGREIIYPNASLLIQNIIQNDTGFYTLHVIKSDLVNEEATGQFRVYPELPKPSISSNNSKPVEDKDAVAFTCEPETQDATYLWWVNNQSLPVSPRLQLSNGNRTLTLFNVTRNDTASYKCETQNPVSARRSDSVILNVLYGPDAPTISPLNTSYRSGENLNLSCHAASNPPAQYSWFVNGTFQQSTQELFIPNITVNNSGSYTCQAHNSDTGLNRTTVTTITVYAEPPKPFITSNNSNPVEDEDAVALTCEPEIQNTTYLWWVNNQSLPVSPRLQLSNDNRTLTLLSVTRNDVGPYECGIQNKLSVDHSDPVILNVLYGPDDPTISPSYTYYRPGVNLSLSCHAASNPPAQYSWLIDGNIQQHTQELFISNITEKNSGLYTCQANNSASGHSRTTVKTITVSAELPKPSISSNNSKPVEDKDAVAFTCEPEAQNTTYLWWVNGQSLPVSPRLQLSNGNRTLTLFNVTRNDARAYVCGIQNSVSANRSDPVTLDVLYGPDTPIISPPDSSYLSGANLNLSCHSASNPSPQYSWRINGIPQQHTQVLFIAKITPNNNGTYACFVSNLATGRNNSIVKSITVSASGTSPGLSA
Description: (§1) Plates were coated with 50 μl of 1 μg/ml of CEACAM1 (#2244-CM, R&D Systems) overnight at 4° C. The next day, in 16 h, plates were blocked with 200 μl 0.4% bovine serum albumin (BSA) (Sigma, A9647) in PBS for 1 hr at room temperature. Plates were washed once with 300 μl of 0.02% Tween-20 in PBS on a Biotek plate washer. 1/2 log dilutions of CEACAM mAbs starting from 10 μg/ml to 0.0001 ug/ml in 0.4% BSA, or PBS only, were plated for each antibody. 50 μl of each dilution were added to coated plates. Plates were incubated at room temp for approx 30 min. Plates were then washed 3 times with 300 μl of 0.02% Tween-20 in PBS using a Biotek plate washer. […] Plates were incubated at room temp for approximately 30 min. Plates were then washed 3 times with 300 ul of PBS/0.02% Tween-20 on a Biotek plate washer. 50 μl of 3,3′,5,5′-Tetramethylbenzidine (TMB, Sigma T0440) were added, allowed for color development, followed by adding 50 ul of 4N H₂SO₄. Plates were analyzed at 450 nm using EnVision Microplate Reader (PerkinElmer). Isotype control (CNT08939 antibody, specific to RSV virus, having the human IgG2 sigma backbone) was plated on last 3 plates at a concentration 10 μg/ml. Absorbance at 450 nm (FIG. 2) was analyzed using XY scatter plots and non-linear fit curves were generated after log transformation, and EC50 values were calculated, using GraphPad Prism (GraphPad Software, San Diego, Calif.). For several antibodies the EC50 could not be calculated using GraphPad Prism due to poor curve fit; in these cases the EC50 values were visually estimated at the midpoint of the available curve. EC50 values for binding to recombinant CEACAM1 are represented in Table 1.
(§2) 3.1 Binding to recombinant CEACAM5 and CEACAM6. Cross-screening for specificity of purified phage and hybridoma antibodies to recombinant CEACAM5 (R&D Systems #4128-CM) and CEACAM6 (R&D Systems #3934-CM) was performed using ELISA, according to the protocol described in Example 2. Binding curves for binding of mAbs to CEACAM5 are shown on FIG. 5a, and to CEACAM6 on FIG. 5b.

[2] = target: T2, recombinant CEACAM6 (R&D Systems #3934-CM) (human, UniProt P40199 35-320); test: ELISA, plate-coated recombinant CEACAM6
T2 construct: Bought protein
T2 sequence: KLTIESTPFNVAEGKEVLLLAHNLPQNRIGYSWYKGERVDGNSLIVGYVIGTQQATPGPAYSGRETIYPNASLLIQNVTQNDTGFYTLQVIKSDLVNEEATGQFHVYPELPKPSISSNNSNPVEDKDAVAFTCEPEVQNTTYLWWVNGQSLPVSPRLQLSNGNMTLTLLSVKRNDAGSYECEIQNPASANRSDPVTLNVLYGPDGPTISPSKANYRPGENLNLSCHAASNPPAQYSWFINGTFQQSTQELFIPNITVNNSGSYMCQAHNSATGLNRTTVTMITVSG
Description: as §1, §2

[3] = target: T3, CEACAM6 overexpressed on HEK293T cells (human, UniProt P40199 35-320); test: flow cytometry on HEK293T cells overexpressing CEACAM6
T3 construct: also called CEACAM6 expressing HEK293T cells
T3 sequence: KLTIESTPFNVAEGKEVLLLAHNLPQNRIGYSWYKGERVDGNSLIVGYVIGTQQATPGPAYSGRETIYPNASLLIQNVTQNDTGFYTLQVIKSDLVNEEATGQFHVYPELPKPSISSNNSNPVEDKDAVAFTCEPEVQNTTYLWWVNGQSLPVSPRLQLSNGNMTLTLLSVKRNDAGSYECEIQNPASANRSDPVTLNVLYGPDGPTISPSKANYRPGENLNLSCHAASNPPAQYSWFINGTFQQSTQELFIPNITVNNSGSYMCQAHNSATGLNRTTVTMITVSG

[4] = target: T4, full length CEACAM1 overexpressed on HEK293T cells (human, UniProt P13688 35-526); test: flow cytometry on HEK293T cells overexpressing CEACAM1
T4 construct: also called CEACAM-1 expressing HEK293T cells
T4 sequence: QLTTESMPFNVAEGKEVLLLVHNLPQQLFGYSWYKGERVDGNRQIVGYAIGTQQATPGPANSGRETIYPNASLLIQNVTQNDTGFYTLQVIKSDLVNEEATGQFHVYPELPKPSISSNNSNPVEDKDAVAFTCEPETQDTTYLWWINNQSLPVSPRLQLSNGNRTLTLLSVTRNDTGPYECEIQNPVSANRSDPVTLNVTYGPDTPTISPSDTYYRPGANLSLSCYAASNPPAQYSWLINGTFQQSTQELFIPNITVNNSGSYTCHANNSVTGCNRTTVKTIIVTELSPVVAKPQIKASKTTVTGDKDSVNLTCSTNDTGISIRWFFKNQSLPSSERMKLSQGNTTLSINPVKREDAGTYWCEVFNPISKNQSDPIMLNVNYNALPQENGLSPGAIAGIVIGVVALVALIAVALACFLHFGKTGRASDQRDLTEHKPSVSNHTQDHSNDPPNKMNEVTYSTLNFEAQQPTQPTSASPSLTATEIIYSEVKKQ
From the text: CEACAM1 overexpressing cells were then subcloned and sorted for purified populations of CEACAM1 positive cells, using standard techniques (FIG. 3). These cells were then used to generate binding curves by flow cytometry (FIG. 4).

[5] = target: T5, CEACAM5 overexpressed on HEK293T cells (human, UniProt P06731 35-685); test: flow cytometry on HEK293T cells overexpressing CEACAM5
T5 construct: also called CEACAM5 expressing HEK293T cells
T5 sequence: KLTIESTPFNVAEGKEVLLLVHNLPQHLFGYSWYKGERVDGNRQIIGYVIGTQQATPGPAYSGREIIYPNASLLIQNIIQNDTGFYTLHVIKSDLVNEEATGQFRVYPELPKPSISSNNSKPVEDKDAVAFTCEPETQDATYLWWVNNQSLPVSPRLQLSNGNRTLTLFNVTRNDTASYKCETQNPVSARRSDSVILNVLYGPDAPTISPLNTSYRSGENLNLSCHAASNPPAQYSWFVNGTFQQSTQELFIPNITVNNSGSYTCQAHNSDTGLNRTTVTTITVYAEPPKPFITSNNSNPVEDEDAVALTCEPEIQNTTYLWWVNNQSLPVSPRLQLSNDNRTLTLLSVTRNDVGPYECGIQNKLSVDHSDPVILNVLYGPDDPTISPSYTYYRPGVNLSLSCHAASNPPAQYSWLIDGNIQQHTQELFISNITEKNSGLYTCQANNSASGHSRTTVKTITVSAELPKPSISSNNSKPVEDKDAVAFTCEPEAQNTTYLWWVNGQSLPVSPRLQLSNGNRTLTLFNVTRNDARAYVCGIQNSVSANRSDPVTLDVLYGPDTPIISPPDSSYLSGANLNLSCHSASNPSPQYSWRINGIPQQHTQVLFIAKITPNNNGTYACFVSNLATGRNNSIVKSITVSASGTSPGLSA

Row | Binder | EC50 [1] [µg/mL] | EC50 [2] [µg/mL] | EC50 [3] [µg/mL] | EC50 [4] [µg/mL] | binding result [5] | binding result [3]
1 | CCMB09.004 (antibody, V domains shown, also called mAb 5) VH: QVQLQESGPGLVKPSQTLSLTCTVTGDSIRSGGHYWSWIRQHPGKGLEWIGNIYYSGSTHYNPSLKSRLTISVDTSKNQFSLKVSSVTAADTAVYYCARGRLLWFGEPQDFQHWGQGTLVTVSS VL: not shown | 4.46 | 5.13 | 0.0158 | – | – | –
2 | CCMB18.004 (antibody, V domains shown, also called mAb 6) VH: QVQLVQSGSELKKPGASVKVSCKASGYTLTDYGMNWVRQAPGQGLQWMGWINTNTGNPTYAQGFTGRFVFSLDTSVSTAYLQISSLKTEDTAVYYCARKAIWGWFDPWGQGTLVTVSS VL: not shown | 4.32 | 6.05 | 0.0118 | – | – | –
3 | CCMB03.004 (antibody, V domains shown, also called mAb 2) VH: QVQLVQSGSELRTPGASVKVSCKASGYTFTSYGLSWVRQAPGQGLEWMGWINTNTGNPTYAQGFTGRFVFSLDTSVSTAYLQISSLKAEDTAVYYCARKGIWGPFDYWGQGTLVTVSS VL: not shown | 16.4 | 5 | 0.00515 | – | – | –
4 | CCMB04.004 (antibody, V domains shown, also called mAb 3) VH: QVQLVQSGSELKKPGASVKVSCKASGYTFTNYGVNWVRQAPGQGLEWMGWINTNTGNPTYVQGFTGRFVFSLDTSVTTAYLHISSLKAEDTAVYFCARKGIWGPFDHWGQGTLVTVSS VL: not shown | 6.46 | 5.57 | 0.0109 | – | – | –
5 | CCMB23.004 (antibody, V domains shown, also called mAb 8) VH: QLQLQESGPGLVKPSETLSLTCTVSADSISRTSYYWGWIRQPPGKGLEWIGTIYYSGSTYYNPSLKSRVTISVDTSRNHFSLTLNSVTAADTAVYYCARQIAVGAHRFDYWGQGTLVTVSS VL: DIQLTQSPSFLSASVGDRVTITCRASQGISSYLAWYQQKPGKAPKLLIYAASTLQSGVPSRFSGSGSGTEFTLTISSLQPEDFATYYCQQLNSYPWTFGQGTKVEIK | – | – | – | 0.00419 | no binding | no binding
6 | CCMB66.004 (antibody, V domains shown, also called mAb 12) VH: EVQLVQSGAEVKKPGESLKISCKGSGYSFTSYWIGWVRQMPGKGLEWMGIIYPGDSDTRYSPSFQGQVTISADKSISTAYLQWSSLKASDTAMYYCARGYPAPTVNDLDYWGQGTLVTVSS VL: not shown | 1690 | – | – | – | – | no binding
7 | CCMB20.004 (antibody, V domains shown, also called mAb 7) VH: EVQLLESGGGLVQPGESLRLSCAASGFTFNNYAMTWVRQAPGKGLDWVSSISGTSANTYYADAVKGRFTISRDNSMTTLYLQMNSLRAEDTAVYYCAKPILTLFGELPLDYWGQGTLVTVSS VL: EIVMTQSPATLSVSPGERATLSCRASQSVSSNLAWYQQKTGQAPRLLIYGASTRATAFPARFSGSGSGTEFTLTISSLQSEDFAVYYCQQYNNWPLTFGGGTKVEIK | 4.27 | – | – | – | – | no binding
8 | CCMB02.004 (antibody, V domains shown, also called mAb 1) VH: EVQLLESGGGLVQPGGSLRLSCAASGFTFINYAMNWVRLTPGKGLEWVSVISGSGSGTYYADSVKGRFTVSRDNSKNTLYLQMNSLRVEDTAIYYCASPPPMVRGVIITIGNYWGQGALVTVSS VL: not shown | 50 | – | – | – | – | no binding
9 | CCMB07.004 (antibody, V domains shown, also called mAb 4) VH: EVQLLESGGGLVQPGGSLRLSCAASGFTFTNYAMNWVRLAPGKGLEWVSVISGSGSGTYYADSVKGRFTVSRDNSKNTLYLQMNSLRVEDTAIYYCASPPPMVRGVIITIGNYWGQGALVTVSS VL: EIVMTQSPATLSVSPGERATLSCRASQSVSVNLAWYQQKPGQAPRLLIYGASTRATSIPTRFSGSGSGTEFTLTISSLQSEDFAVYYCQQYNNWPFTFGPGTKVEIK | 9.77 | – | – | – | – | no binding
10 | CCMB35.004 (antibody, V domains shown, also called mAb 9) VH: EVQLLESGGGLVQPGESLRLSCAASGLTFSDYAMNWVRQAPGKGLYWVSSISGTGGSTYYADSLKGRFTISRDNSKNTLYLQMNSLRAEDTAVYYCAKDIAVGVTAYFDHWGQGTLVTVSS VL: SSELTQDPAVSVALGQTVRITCQGDSLRTYSASWYQQKPGQAPVLVIYGKNNRPSGIPDRFSGSSSGNTASLTITGAQAEDEADYYCNSRDSRGNLLVVFGGGTKLTVL | – | – | – | 0.0275 | no binding | no binding
11 | CCMB42.004 (antibody, V domains shown, also called mAb 10) VH: EVQLLESGGGLVQPGGSLRLSCAASGFTFNTYGMSWARQAPGKGLEWVSTISGSGDNTYYADSVKGRFTISRDNSKNTLYLQINSLRAEDTAVYYCAKGGLLWFGELPYPFDYWGQGTLVTVSS VL: QSALTQPASVSGSPGQSITISCTGTSSDVGGYNYVSWYQQHPGKAPKLMIYDVSNRPSGVSNRFSGSKSDNTASLTISGLQAEDEADYYCSSYISTSTLYVFGIGTKVTVL | 1.14 | – | – | – | – | no binding
12 | CCMB61.004 (antibody, V domains shown, also called mAb 11) VH: not shown VL: SSELTQDPAVSVALGQTVRITCQGDSLRSYYVSWYQQKPGQAPTLVIYGKNNRPSGIPDRFSGSSSGNTPSLTITGAQAEDEADYYCNSRDSSNHLVVFGGRTKLTVL | – | 1240 | – | 0.0353 | no binding | –
